# T1: purified human fibulin-3 (Homo sapiens, UniProt Q12805)
# T1 construct: purchased ORIGENE
# T1 sequence (Q12805 18-493): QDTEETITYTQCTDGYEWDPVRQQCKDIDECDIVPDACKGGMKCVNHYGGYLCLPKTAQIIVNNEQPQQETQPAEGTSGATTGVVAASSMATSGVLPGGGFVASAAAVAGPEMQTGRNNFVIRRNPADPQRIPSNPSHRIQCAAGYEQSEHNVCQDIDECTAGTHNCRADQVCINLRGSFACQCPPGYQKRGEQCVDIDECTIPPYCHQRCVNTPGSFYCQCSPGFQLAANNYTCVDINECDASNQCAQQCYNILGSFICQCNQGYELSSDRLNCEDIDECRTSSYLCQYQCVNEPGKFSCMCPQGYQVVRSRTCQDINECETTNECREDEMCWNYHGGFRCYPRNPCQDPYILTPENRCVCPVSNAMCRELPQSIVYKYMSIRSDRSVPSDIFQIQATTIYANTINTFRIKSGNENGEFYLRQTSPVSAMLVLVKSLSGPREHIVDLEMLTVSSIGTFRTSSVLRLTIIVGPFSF
# What was measured:
# U251MG glioma cells = experiment: Temozolomide combination viability assay in U251MG cells; format: cell-based, human; settings: increasing concentrations, 72 h
# Experimental: The antibody increased the cytotoxicity of TMZ by 30% in average.
# Antibodies against fibulin-3 can potentiate the effect of a chemotherapeutic drug. Glioma cells (U251MG cell line) were cultured in presence of increasing doses of temozolomide, which is the standard-of-care drug for treatment of malignant glioma. The drug was combined with antibody vehicle (PBS) or with a fixed dose of anti-Fib3/911 antibody. Viability of the cells was analyzed after 72 h, which is a time period at which temozolomide has only a modest effect on glioma cells.
# purified human fibulin-3 = target: T1, purified human fibulin-3; experiment: Western blot and dot-blot detection of fibulin-3; format: binding; settings: for detection of fibulin-3 by Western blotting: SDS-PAGE, reducing and/or non-reducing conditions
# Experimental: CNSI glioma cells were transfected with fibulin-3 cDNA (fib3-OE cells) or a control plasmid (control cells) and cultured for 24 h in serum-free conditions. Conditioned medium was collected and probed by Western blotting with anti-Fib3/911 (911), anti-Fib3/912 (912), or their respective preimmune sera (antibodies and sera were used at 1/5000 dilution).
# Two rabbit polyclonal antibodies were commissioned against the 23-amino acid peptide sequence of fibulin-3 involved in Notch activation. The peptide was minimally modified to facilitate the formation of a disulfide bridge necessary to form a conformational, tri-dimensional epitope (FIG. 4). Antibodies against fibulin-3 (“anti-Fib3/911” and “anti-Fib3/912”) were purified by affinity chromatography, aliquoted, and prepared in phosphate-buffered saline (PBS) solution for all subsequent tests.
# Purified human fibulin-3 (200 ng/lane, ORIGENE) was subjected to SDS-PAGE in reducing and non-reducing conditions and probed with affinity-purified mAb428.3C11 (0.4 to 20 μg/ml, diluted in PBS from a 2 mg/ml stock).
# Concentrated, serum-free culture medium from HEK293 cells (1 mg/ml total protein) was probed with anti-human IgG secondary antibody (HRP conjugate) to detect the chains of antibody in reducing and non-reducing conditions. C) Concentrated medium from HEK293 cells (1 mg/ml total protein) was directly used to probe purified human fibulin-3 (resolved by SDS-PAGE in non-reducing conditions).
# Experimental for U251 glioblastoma cells: In FIG. 27C, U251 glioblastoma cells (5,000 cells/well) were incubated in conditioned medium from control-HEK293 or scFv-expressing HEK293 (1.5 mg/ml total protein). After 48 h cell viability was measured using the CellTiter-Glo kit to measure ATP production (PROMEGA cat #G7572).
Molecule,cytotoxic effect of TMZ alone (U251MG glioma cells),detection of fibulin-3 by Western blotting (purified human fibulin-3),"detection of native fibulin-3 by dot-blotting (purified human fibulin-3; non-reduced fibulin-3 on nitrocellulose, scFv428.2 medium 1 mg/ml, mAb428.2 1 μg/ml)",cytotoxicity of culture media with scFv (U251 glioblastoma cells)
"Cn1nnc2c(C(N)=O)ncn2c1=O [TMZ, temozolomide]","modest, dose-dependent cytoxic effect",–,–,–
"scFv428.2: single-chain variable fragment derived from mAb428.2, VL-(G4S)3-VH with Myc and 6xHis tags; SEQ ID NOS: 25, 26 (protein) scFv: DDIKMTQSPSSMYASLGERVTITCKASQDIKSYLSWHQQKPWKSPKTLIYYATSLADGVPSRFSGSGSGQDYSLTISSLESDDTATYYCLQHGKSPYTFGGGTKLEIKGGGGSGGGGSGGGGSQIQLVQSGPELKKPGETVKISCKASGYSFTTYGMSWVKQAPGKGLKWMGWINTYSGVPTYADDFKGRFAFFLETSASTAYLQINNLKNEDTATYFCARWVDYWGQGTTLTVSSEQKLISEEDLNMHTGHHHHHH",–,can detect denatured fibulin in reducing and non-reducing conditions,able to detect native fibulin-3 by dot-blotting,induce cytotoxicity in glioblastoma cells
"chimeric mouse/human mAb428.2: recombinant chimeric antibody with VL and VH of mAb428.2; light chain SEQ ID NO: 23, heavy chain SEQ ID NO: 24 (antibody) heavy: MYRMQLLSCIALSLALVTNSEVQLVEQIQLVQSGPELKKPGETVKISCKASGYSFTTYGMSWVKQAPGKGLKWMGWINTHSGVPTYADDFKGRFAFFLETSASTAYLQINNLKNEDTATYFCARWVDYWGQGTTLTVSSGTLVTVSSASTKGPSVFPLAPSSKSTSGGTAALGCLVKDYFPEPVTVSWNSGALTSGVHTFPAVLQSSGLYSLSSVVTVPSSSLGTQTYICNVNHKPSNTKVDKKVEPKSCDKTHTCPPCPAPELLGGPSVFIFPPKPKDVLTITLTPKVTCVVVDISKDDPEVQFSWFVDDVEVHTAQTQPREEQFNSTFRSVSELPIMHQDWLNGKEFKCRVNSAAFPAPIEKTISKTKGRPKAPQVYTIPPPKEQMAKDKVSLTCMITDFFPEDITVEWQWNGQPAENYKNTQPIMDTDGSYFVYSKLNVQKSNWEAGNTFTCSVLHEGLHNHHTEKSLSHSPGK light: MQLLSCIALSLALVTNSDIQMTQSPSSLSASVGDRVTITCRASQSVSSADIKMTQSPSSMYASLGERVTITCKASQDIKSYLSWHQQKPWKSPKTLIYYATSLADGVPSRFSGSGSGQDYSLTISSLESDDTATYYCLQHGKSPYTFGGGTKLEIKGTKVEIKRTVAAPSVFIFPPSDSQLKSGTASVVCLLNNFYPREAKVQWKVDNALQSGNSQESVTEQDSKDSTYSLSSTLTLSKADYEKHKVYACEVTHQGLSSPVTKSFNRGEC",–,detects the same pattern of bands as purified mouse mAb428.2,–,–

# — patent publication US10538591B2, “Anti-fibulin-3 antibodies and uses thereof” (THE BRIGHAM AND WOMEN'S HOSPITAL, INC., priority 2014, dated 2020)
